Source: patent US20260062463A1 (KANGYUAN BIOMEDICAL TECH DALIAN, published 2026)

T1: AAV8 (adeno-associated virus 8, Assembled 60-mer capsid of VP1/VP2/VP3 (nested products of one cap gene), amine-coupled to a CM5 chip; the letters give one VP1 subunit only.)
T1 construct: also called adeno-associated virus serotype 8
T1 chain: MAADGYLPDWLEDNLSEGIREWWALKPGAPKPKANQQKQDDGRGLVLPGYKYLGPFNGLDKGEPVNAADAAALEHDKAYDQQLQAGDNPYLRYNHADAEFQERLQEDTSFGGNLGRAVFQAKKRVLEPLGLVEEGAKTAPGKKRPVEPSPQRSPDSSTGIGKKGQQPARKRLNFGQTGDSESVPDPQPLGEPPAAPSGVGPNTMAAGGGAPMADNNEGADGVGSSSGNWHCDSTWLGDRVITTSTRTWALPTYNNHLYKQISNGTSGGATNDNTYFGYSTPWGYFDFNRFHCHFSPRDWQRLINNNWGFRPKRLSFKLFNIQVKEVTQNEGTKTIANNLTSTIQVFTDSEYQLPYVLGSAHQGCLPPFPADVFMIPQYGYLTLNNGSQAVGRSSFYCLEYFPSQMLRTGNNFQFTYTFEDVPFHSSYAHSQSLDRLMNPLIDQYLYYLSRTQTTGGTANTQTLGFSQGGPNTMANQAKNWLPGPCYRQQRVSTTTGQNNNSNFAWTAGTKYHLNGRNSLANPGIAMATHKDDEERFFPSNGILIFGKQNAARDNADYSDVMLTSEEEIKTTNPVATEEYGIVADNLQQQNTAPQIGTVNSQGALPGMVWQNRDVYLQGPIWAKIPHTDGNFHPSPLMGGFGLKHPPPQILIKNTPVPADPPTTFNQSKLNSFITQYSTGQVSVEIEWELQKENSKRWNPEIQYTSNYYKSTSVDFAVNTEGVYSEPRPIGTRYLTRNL


Columns and labels:
AAV5 = molecular target: T2, AAV5 (adeno-associated virus 5, Assembled 60-mer capsid of VP1/VP2/VP3 (nested products of one cap gene), amine-coupled to a CM5 chip; the letters give one VP1 subunit only.); test: SPR, AAV amine-coupled to CM5 chip
T2 construct: also called adeno-associated virus serotype 5

AAV8 [1] = molecular target: T1, AAV8; test: SPR, AAV amine-coupled to CM5 chip
AAV9 = molecular target: T3, AAV9 (adeno-associated virus 9, Assembled 60-mer capsid of VP1/VP2/VP3 (nested products of one cap gene), amine-coupled to a CM5 chip; the letters give one VP1 subunit only.); test: SPR, AAV amine-coupled to CM5 chip
T3 construct: also called adeno-associated virus serotype 9

AAV8 [2] = molecular target: T4, AAV8 (adeno-associated virus 8); test: SPR, AAV on CM5 chip
T4 construct: also called adeno-associated virus serotype 8
Protocol: AAV was amine-coupled to a CM5 sensor chip at a density of 500-800 response units (RU). Nanobodies were injected at seven concentrations (1-100 nM) with a flow rate of 45 μL/min, and chip regeneration was performed using glycine-HCl (pH 1.5).

| Binder | Kd (AAV5) | koff (AAV5) | kon (AAV5) | Kd (AAV8 [1]) | koff (AAV8 [1]) | kon (AAV8 [1]) | Kd (AAV9) | koff (AAV9) | kon (AAV9) | kon (AAV8 [2]) |
| --- | --- | --- | --- | --- | --- | --- | --- | --- | --- | --- |
| A4-D2 (VHH) VQLQESGGGLVQAGGSLRLSCAASGRGFSINTMGWYRQAPGKQRELVAAVTRGGTTNYADSVKGRFTISRDNAKNTVYLQMNSLRPEDTAVYYCHVDEVRQSSWTTSNLWGQGTQVTVSSGGGGSGGGGSGGGGSVQLQESGGGLVQAGGSLRLSCAASGRGFSINTMGWYRQAPGKQRELVAAVTRGGTTNYADSVKGRFTISRDNAKNTVYLQMNSLRPEDTAVYYCHVDEVRQSSWTTSNLWGQGTQVTVSSGGGGSGGGGSGGGGSVQLQESGGGLVQAGGSLRLSCAASGRGFSINTMGWYRQAPGKQRELVAAVTRGGTTNYADSVKGRFTISRDNAKNTVYLQMNSLRPEDTAVYYCHVDEVRQSSWTTSNLWGQGTQVTVSSGGGGSGGGGSGGGGSVQLQESGGGLVQAGGSLRLSCAASGRGFSINTMGWYRQAPGKQRELVAAVTRGGTTNYADSVKGRFTISRDNAKNTVYLQMNSLRPEDTAVYYCHVDEVRQSSWTTSNLWGQGTQVTVSS | 0.0996 nM | 5.7e-06 s⁻¹ | 57200 M⁻¹ s⁻¹ | 0.0821 nM | 3.6e-06 s⁻¹ | 43900 M⁻¹ s⁻¹ | 0.304 nM | 9e-06 s⁻¹ | 29600 M⁻¹ s⁻¹ | – |
| A4-D5 (other) VQLQESGGGLVQPGGSLRLSCVASGSSFSINTMGWYRRAPGKQRELVATVTRDGSTNYANSVKGRFTISRDNAKNTVYLQMNSLRPEDTAVYYCHVDEVRQSSWTTSNLWGQGTQVTVSSGGGGSGGGGSGGGGSVQLQESGGGLVQPGGSLRLSCVASGSSFSINTMGWYRRAPGKQRELVATVTRDGSTNYANSVKGRFTISRDNAKNTVYLQMNSLRPEDTAVYYCHVDEVRQSSWTTSNLWGQGTQVTVSSGGGGSGGGGSGGGGSVQLQESGGGLVQPGGSLRLSCVASGSSFSINTMGWYRQAPGKQRELVATVTRDGSTNYANSVKGRFTISRDNAKNTVYLQMNSLRPEDTAVYYCHVDEVRQSSWTTSNLWGQGTQVTVSSGGGGSGGGGSGGGGSVQLQESGGGLVQPGGSLRLSCVASGSSFSINTMGWYRRAPGKQRELVATVTRDGSTNYANSVKGRFTISRDNAKNTVYLQMNSLRPEDTAVYYCHVDEVRQSSWTTSNLWGQGTQVTVSS | 0.318 nM | 1.34e-05 s⁻¹ | 42100 M⁻¹ s⁻¹ | 0.0836 nM | 5e-06 s⁻¹ | 59800 M⁻¹ s⁻¹ | 0.117 nM | 4.3e-06 s⁻¹ | 36900 M⁻¹ s⁻¹ | – |
| A4-052 (VHH) VHH: VQLQESGGGLVQPGGSLRLSCAASGSIFIINTMGWYRQAPGKQRELVAAVTRGGSTNYADSVKGRFTISRDNAKNTVYLQMNSLRPEDTAVYYCHVDEVRQSSWTTSNLWGQGTQVTVSS | – | – | – | – | – | – | – | – | – | 31800 M⁻¹ s⁻¹ |
| A4-C6 (bispecific antibody) VQLQESGGGLVQPGGSLRLSCAASGSNFRINTMGWYRQAPGKQRELVAPVTRGGSTNYADSVKGRFTISRDNAKNTVYLQMNSLRPEDTAVYYCHVDEVRESSWTTSNLWGQGTQVTVSSGGGGSGGGGSGGGGSVQLQESGGGLVQPGGSLRLSCAASGSNFSINTMGWYRQAPGKQRELVAALTRGGSTNYADSVKGRFTISRDNAKNTVYLQMNSLRPEDTAVYYCHVDEVRESSWTTSNLWGQGTQVTVSSGGGGSGGGGSGGGGSVQLQESGGGLVQPGGSLRLSCAASGSNFSINTMGWYRQAPGKQRELVATVTRGGDTNYADSVKGRFTISRDNAKNTVYLQMNSLRPEDTAVYYCHVDEIRESSWTTSNLWGQGTQVTVSS | 0.785 nM | 0.000139 s⁻¹ | 177000 M⁻¹ s⁻¹ | 2.67 nM | 0.00044 s⁻¹ | 165000 M⁻¹ s⁻¹ | 0.55 nM | 2.5e-05 s⁻¹ | 45400 M⁻¹ s⁻¹ | – |
| A4-C7 (bispecific antibody) VQLQESGGGLVQPGGSLRLSCAASGSNFSINTMGWYRQAPGKQRELVATVTRGGDTNYADSVKGRFTISRDNAKNTVYLQMNSLRPEDTAVYYCHVDEIRESSWTTSNLWGQGTQVTVSSGGGGSGGGGSGGGGSVQLQESGGGLVQPGGSLRLSCAASGSNFRINTMGWYRQAPGKQRELVAPVTRGGSTNYADSVKGRFTISRDNAKNTVYLQMNSLRPEDTAVYYCHVDEVRESSWTTSNLWGQGTQVTVSSGGGGSGGGGSGGGGSVQLQESGGGLVQPGGSLRLSCAASGSSFTINTMGWYRQAPGKQRELVAAVTRGGSTNYAGSVKGRFTISRDNAKNTIYLQMNSLRPEDTAVYYCHVDEIRQSSWTTSNLWGQGTQVTVSS | 0.0732 nM | 3.2e-05 s⁻¹ | 437000 M⁻¹ s⁻¹ | 3.7 nM | 0.00047 s⁻¹ | 127000 M⁻¹ s⁻¹ | 0.127 nM | 1.75e-05 s⁻¹ | 137000 M⁻¹ s⁻¹ | – |
| A4-C8 (bispecific antibody) VQLQESGGGLVQPGGSLRLSCAASGSNFRINTMGWYRQAPGKQRELVAPVTRGGSTNYADSVKGRFTISRDNAKNTVYLQMNSLRPEDTAVYYCHVDEVRESSWTTSNLWGQGTQVTVSSGGGGSGGGGSGGGGSVQLQESGGGLVQPGGSLRLSCAASGSNFSINTMGWYRQAPGKQRELVATVTRGGDTNYADSVKGRFTISRDNAKNTVYLQMNSLRPEDTAVYYCHVDEIRESSWTTSNLWGQGTQVTVSSGGGGSGGGGSGGGGSVQLQESGGGLVQPGGSLRLSCAASGSNFSINTMGWYRQAPGKQRELVAALTRGGSTNYADSVKGRFTISRDNAKNTVYLQMNSLRPEDTAVYYCHVDEVRESSWTTSNLWGQGTQVTVSS | 0.69 nM | 0.00013 s⁻¹ | 188000 M⁻¹ s⁻¹ | 2.81 nM | 0.00037 s⁻¹ | 132000 M⁻¹ s⁻¹ | 0.279 nM | 5e-05 s⁻¹ | 179000 M⁻¹ s⁻¹ | – |
